From publication PMC3806657 (Molecular Biology of the Cell, 2013) come the findings set out here.

Sequences and labels used below:
T1: 6His-tagged GEF domain of Gef2 (aa 211-600) (S. pombe, UniProt Q09733 211-600)
T1 sequence: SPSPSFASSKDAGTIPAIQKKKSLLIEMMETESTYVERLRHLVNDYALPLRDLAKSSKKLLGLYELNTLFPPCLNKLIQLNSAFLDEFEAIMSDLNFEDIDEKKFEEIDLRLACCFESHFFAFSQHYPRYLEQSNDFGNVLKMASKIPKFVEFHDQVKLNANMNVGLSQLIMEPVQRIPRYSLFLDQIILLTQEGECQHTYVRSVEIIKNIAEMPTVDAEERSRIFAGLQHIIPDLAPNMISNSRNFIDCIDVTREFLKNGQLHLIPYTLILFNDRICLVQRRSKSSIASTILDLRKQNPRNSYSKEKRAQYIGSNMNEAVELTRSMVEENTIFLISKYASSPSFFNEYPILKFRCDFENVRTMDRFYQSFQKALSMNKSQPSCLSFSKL

B1: GST-Rho5 (enzyme)
chain: MTTELRRKLVIVGDGACGKTCLLIVFSKGTFPEVYVPTVFENYVADVEVDGRHIELALWDTAGQEDYDRLRPLSYPDSHVVLICFSVDAPESLDNVQEKWISEVLHFCSNLPILLVGCKVDLRNDPKTIEELSKTSQKPITFEEGQVVAQKIGAYKYLECSAKLNEGVNEVFETAARASMLKFKPASVPKTKKKKHCILL
B2: GST-Rho1 (enzyme)
chain: MATELRRKLVIVGDGACGKTCLLIVFSKGTFPEVYVPTVFENYVADVEVDGRHVELALWDTAGQEDYDRLRPLSYPDSHVILICFAVDSPDSLDNVQEKWISEVLHFCSSLPILLVACKADLRNDPKIIEELSKTNQHPVTTEEGQAVAQKIGAYKYLECSAKTNEGVREVFESATRAAMLKHKPKVKPSSGTKKKKRCILL
B3: GST-Rho4 (enzyme)
chain: MSAFKKSGSKSETSKKLVVVGDGGCGKTCLLIVFSSGTFPERYVPTVFENYITDITYGPNSKVIELALWDTAGQEEYDRLRPLSYPNSNVILLCFSIDCPASLNNVTEKWYPEVQHFCPRTPIVLVGLKADLRKDRNATEVLRTQGLTPVTYQQAQSVALSMNAPYVECSAKENTGVNEVFQLAVGLTIKKSFSFSKKSCVIL

The target of the experiment is T1, 6His-tagged GEF domain of Gef2 (aa …). Briefly: pull-down.
B1: the binding result is “binds”. Consider B2, for which the binding result is “binds”.

As for B3, the binding result was “binds”.
